Data published in patent publication US20150259426A1 (Novartis, published 2015).
Where two headings read alike, the source gives them in different places. One block for each binder: values may come before it.

Legend:
[1] = molecular target: T1, DcR3 (TNFRSF6B, Val27-Ala176) (UniProt O95407 27-176); test: ELISA, receptor ECD from E. coli lysate on His capture plate;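 also: binding specificity screen across TNF receptor superfamily ectodomains, anti-V5 detection as expression reference, primary antibody incubation 1 h at room temperature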
T1 construct: range 27-176; ECD cloned into pBadThioTopo; E. coli lysate on His capture plates
T1 sequence (looked up): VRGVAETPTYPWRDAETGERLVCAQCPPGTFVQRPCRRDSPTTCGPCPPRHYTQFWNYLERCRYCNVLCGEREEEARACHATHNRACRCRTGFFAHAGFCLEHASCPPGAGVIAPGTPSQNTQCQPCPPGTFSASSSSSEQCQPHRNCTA

[2] = molecular target: T2, DcR2 extracellular domain (TNFRSF10D, Thr57-Thr198) (UniProt Q9UBN6 57-198); test: as above
T2 construct: range 57-198; ECD cloned into pBadThioTopo; E. coli lysate on His capture plates
T2 sequence (looked up): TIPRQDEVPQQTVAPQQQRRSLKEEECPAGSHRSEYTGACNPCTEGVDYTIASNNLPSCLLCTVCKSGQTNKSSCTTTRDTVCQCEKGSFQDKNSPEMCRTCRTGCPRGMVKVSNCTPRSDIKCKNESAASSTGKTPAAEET

[3] = molecular target: T3, OX40 extracellular domain (TNFRSF4, Gly33-Gly212) (UniProt P43489 33-212); test: as above
T3 construct: ECD cloned into pBadThioTopo; E. coli lysate on His capture plates
T3 sequence (looked up): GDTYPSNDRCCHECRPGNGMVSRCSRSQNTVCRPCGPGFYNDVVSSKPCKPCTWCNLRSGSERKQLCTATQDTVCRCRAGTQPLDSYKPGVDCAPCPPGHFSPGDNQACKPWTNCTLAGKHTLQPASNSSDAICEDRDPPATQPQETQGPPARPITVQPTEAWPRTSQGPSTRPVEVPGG

[4] = molecular target: T4, CD40 extracellular domain (TNFRSF5, Val18-Leu192) (UniProt P25942 18-192); test: as above
T4 construct: range 18-192; ECD cloned into pBadThioTopo; E. coli lysate on His capture plates

[5] = molecular target: T5, CD137 extracellular domain (TNFRSF9, Glu19-Ile188) (UniProt Q07011 19-188); test: as above
T5 construct: range 19-188; ECD cloned into pBadThioTopo; E. coli lysate on His capture plates

[6] = molecular target: T6, OPG (TNFRSF11B, Lys17-Ile197) (UniProt O00300 17-197); test: as above
T6 construct: range 17-197; ECD cloned into pBadThioTopo; E. coli lysate on His capture plates
T6 sequence (looked up): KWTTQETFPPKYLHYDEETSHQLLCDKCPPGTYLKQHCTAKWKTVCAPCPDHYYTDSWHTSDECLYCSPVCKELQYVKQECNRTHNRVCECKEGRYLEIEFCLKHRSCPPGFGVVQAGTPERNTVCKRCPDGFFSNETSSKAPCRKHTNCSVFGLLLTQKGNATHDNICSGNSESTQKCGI

[7] = molecular target: T7, TNFR3 extracellular domain (TNFRSF3, Pro30-Thr224) (UniProt P36941 30-224); test: as above
T7 construct: range 30-224; ECD cloned into pBadThioTopo; E. coli lysate on His capture plates

hGITR = molecular target: T8, hGITR (human, UniProt Q9Y5U5); test: as above
T8 construct: extracellular domain, E. coli lysate captured on a His capture plate; Target named only on the sheet; the construct is not described in the text
T8 sequence (extracellular domain, looked up): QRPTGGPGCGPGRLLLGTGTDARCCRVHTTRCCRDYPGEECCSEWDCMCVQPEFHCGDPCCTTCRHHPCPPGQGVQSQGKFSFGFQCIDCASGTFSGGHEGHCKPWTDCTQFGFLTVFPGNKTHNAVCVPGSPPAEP

[8] = molecular target: T9, BAFFR extracellular domain (TNFRSF13C, Met1-Gly64) (UniProt Q96RJ3 1-64); test: as above
T9 construct: range 1-64; ECD cloned into pBadThioTopo; E. coli lysate on His capture plates

[9] = molecular target: T10, CD27 extracellular domain (TNFRSF7, Thr21-Ser187) (UniProt P26842 21-187); test: as above
T10 construct: range 21-187; ECD cloned into pBadThioTopo; E. coli lysate on His capture plates

[10] = molecular target: T11, FAS extracellular domain (TNFRSF6, Ser20-Gly175) (UniProt P25445 20-175); test: as above
T11 construct: ECD cloned into pBadThioTopo; E. coli lysate on His capture plates
T11 sequence (looked up): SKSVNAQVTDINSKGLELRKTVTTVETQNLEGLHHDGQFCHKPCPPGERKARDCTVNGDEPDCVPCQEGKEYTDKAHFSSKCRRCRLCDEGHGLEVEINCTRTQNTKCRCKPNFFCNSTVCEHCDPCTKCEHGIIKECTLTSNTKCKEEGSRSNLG

[11] = molecular target: T12, TNFR1 extracellular domain (TNFRSF1A, Leu34-Thr211) (UniProt P19438 34-211); test: as above
T12 construct: range 34-211; ECD cloned into pBadThioTopo; E. coli lysate on His capture plates
T12 sequence (looked up): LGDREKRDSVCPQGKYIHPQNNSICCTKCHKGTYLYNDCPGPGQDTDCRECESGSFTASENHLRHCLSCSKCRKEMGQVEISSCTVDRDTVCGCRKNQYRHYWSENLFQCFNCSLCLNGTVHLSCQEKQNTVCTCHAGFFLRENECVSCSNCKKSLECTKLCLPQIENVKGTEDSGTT

[12] = molecular target: T13, cell-bound human DR5 (Colo205 and other human cell lines) (human, UniProt O14763 56-440); test: cell-based or functional assay
[13] = molecular target: T13, cell-bound human DR5 (Colo205 and other …); test: cell-based or functional assay; remark: listed apart in the source
[14] = molecular target: T13, cell-bound human DR5 (Colo205 and other …); test: cell-based or functional assay; remark: listed apart in the source
[15] = molecular target: T13, cell-bound human DR5 (Colo205 and other …); test: cell-based or functional assay; remark: listed apart in the source
[16] = molecular target: T13, cell-bound human DR5 (Colo205 and other …); test: cell-based or functional assay; remark: listed apart in the source

T5 sequence (Q07011 19-188 limits assumed): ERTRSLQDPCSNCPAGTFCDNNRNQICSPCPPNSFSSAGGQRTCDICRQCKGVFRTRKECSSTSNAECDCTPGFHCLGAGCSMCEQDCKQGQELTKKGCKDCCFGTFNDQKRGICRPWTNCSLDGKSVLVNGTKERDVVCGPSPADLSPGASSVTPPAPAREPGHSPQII
T10 sequence (P26842 21-187 limits assumed): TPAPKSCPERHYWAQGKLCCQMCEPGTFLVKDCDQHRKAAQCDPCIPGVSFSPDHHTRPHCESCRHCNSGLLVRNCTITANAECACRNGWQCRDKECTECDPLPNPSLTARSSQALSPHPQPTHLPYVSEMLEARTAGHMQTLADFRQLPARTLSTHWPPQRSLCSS
T7 sequence (P36941 30-224 limits assumed): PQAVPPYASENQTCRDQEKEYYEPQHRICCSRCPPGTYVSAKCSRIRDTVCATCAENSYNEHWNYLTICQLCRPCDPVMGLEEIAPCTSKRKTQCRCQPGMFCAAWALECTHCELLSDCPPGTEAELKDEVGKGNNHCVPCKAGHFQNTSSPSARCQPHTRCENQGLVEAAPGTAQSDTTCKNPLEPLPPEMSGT
T9 sequence (Q96RJ3 1-64 limits assumed): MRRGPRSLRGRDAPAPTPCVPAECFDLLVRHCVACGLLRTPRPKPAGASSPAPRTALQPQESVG
T4 sequence (P25942 18-192 limits assumed): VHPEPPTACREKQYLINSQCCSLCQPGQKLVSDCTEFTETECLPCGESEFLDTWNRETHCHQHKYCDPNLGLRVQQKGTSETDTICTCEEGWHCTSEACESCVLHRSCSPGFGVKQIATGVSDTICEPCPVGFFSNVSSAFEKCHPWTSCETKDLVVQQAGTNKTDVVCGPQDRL

binding result [1]: no binding (tested: not stated)
binding result [2]: no binding (tested: not stated)
binding result [3]: no binding (tested: not stated)
binding result [4]: no binding (tested: not stated)
binding result [5]: no binding (tested: not stated)
binding result [6]: no binding (tested: not stated)
binding result [7]: no binding (tested: not stated)
binding result (hGITR): no binding (tested: not stated)
binding result [8]: no binding (tested: not stated)
binding result [9]: no binding (tested: not stated)
binding result [10]: no binding (tested: not stated)
binding result [11]: no binding (tested: not stated)
EC50, caspase 3/7 in Colo205 tumor after a single dose in mice, indirect response model [12]: 1.41 ng/mg tissue
B1: 7A12 tetra (tetravalent anti-DR5 NB construct) (other)
chain: EVQLVESGGGLVQAGGSLRLSCAASGRTFSNYAMGWFRQAPGKEREFVAALNWSGGSTYYVDSVKGRFTISRDNAKNTVYLQMNSLKPEDTAVYYCAAAGSFSLGGRPYGDDYWGKGTLVTVSSGGGGSGGGGSGGGGSGGGGSGGGGSGGGGSGGGGSEVQLVESGGGLVQAGGSLRLSCAASGRTFSNYAMGWFRQAPGKEREFVAALNWSGGSTYYVDSVKGRFTISRDNAKNTVYLQMNSLKPEDTAVYYCAAAGSFSLGGRPYGDDYWGKGTLVTVSSGGGGSGGGGSGGGGSGGGGSGGGGSGGGGSGGGGSEVQLVESGGGLVQAGGSLRLSCAASGRTFSNYAMGWFRQAPGKEREFVAALNWSGGSTYYVDSVKGRFTISRDNAKNTVYLQMNSLKPEDTAVYYCAAAGSFSLGGRPYGDDYWGKGTLVTVSSGGGGSGGGGSGGGGSGGGGSGGGGSGGGGSGGGGSEVQLVESGGGLVQAGGSLRLSCAASGRTFSNYAMGWFRQAPGKEREFVAALNWSGGSTYYVDSVKGRFTISRDNAKNTVYLQMNSLKPEDTAVYYCAAAGSFSLGGRPYGDDYWGKGTLVTVSS
notes: four VHH units in one chain joined by GlySer linkers; not shown: C-terminal c-myc/His6 tag from vector pAX51
IC50, cell survival, 184A1 [13]: ≥ 20 nM
IC50, cell survival, A549 [13]: ≥ 20 nM
IC50, cell survival, ARPE-19 [13]: ≥ 20 nM
IC50, cell survival, BxPC-3 [13]: 0.023 nM
IC50, cell survival, Colo205 [13]: 0.0066 nM
IC50, cell survival, H226 [13]: ≥ 20 nM
IC50, cell survival, H2052 [13]: 0.033 nM
IC50, cell survival, H2122 [13]: 0.0036 nM
IC50, cell survival, HAAE-1 [13]: ≥ 20 nM
IC50, cell survival, Huvec [13]: ≥ 20 nM
IC50, cell survival, Jurkat [13]: 0.037 nM
IC50, cell survival, M30 [13]: ≥ 20 nM
IC50, cell survival, Malme-3 [13]: ≥ 20 nM
IC50, cell survival, MiaPaCa-2 [13]: 0.041 nM
IC50, cell survival, Molt4 [13]: ≥ 20 nM
IC50, cell survival, Panc-1 [13]: ≥ 20 nM
IC50, cell survival, WI-38 [13]: ≥ 20 nM

B2: 11H6-hu tetra (11H6 hu tetramer) (VHH)
chain: EVQLLESGGGLVQPGGSLRLSCAASGTFDKINNMGWYRQAPGKQRDLVAQITPGGITDYADSVKGRFTISRDNSKNTLYLQMNSLRPEDTAVYYCNAEILKRAYIDVYVNYWGQGTLVTVSSGGGGSGGGGSGGGGSGGGGSGGGGSGGGGSGGGGSEVQLLESGGGLVQPGGSLRLSCAASGTFDKINNMGWYRQAPGKQRDLVAQITPGGITDYADSVKGRFTISRDNSKNTLYLQMNSLRPEDTAVYYCNAEILKRAYIDVYVNYWGQGTLVTVSSGGGGSGGGGSGGGGSGGGGSGGGGSGGGGSGGGGSEVQLLESGGGLVQPGGSLRLSCAASGTFDKINNMGWYRQAPGKQRDLVAQITPGGITDYADSVKGRFTISRDNSKNTLYLQMNSLRPEDTAVYYCNAEILKRAYIDVYVNYWGQGTLVTVSSGGGGSGGGGSGGGGSGGGGSGGGGSGGGGSGGGGSEVQLLESGGGLVQPGGSLRLSCAASGTFDKINNMGWYRQAPGKQRDLVAQITPGGITDYADSVKGRFTISRDNSKNTLYLQMNSLRPEDTAVYYCNAEILKRAYIDVYVNYWGQGTLVTVSS
IC50, cell survival, Colo205 [14]: 0.02 nM
IC50, cell survival, Jurkat [14]: 0.016 nM
IC50, cell survival, A549 [15]: > 10 nM
IC50, cell survival, BxPC-3 [15]: 0.0154 nM
IC50, cell survival, Colo205 [15]: 0.0036 nM
IC50, cell survival, H226 [15]: 0.172 nM
IC50, cell survival, H2122 [15]: 0.0041 nM
IC50, cell survival, Jurkat (72) [15]: 0.0007 nM
IC50, cell survival, M30 [15]: > 10 nM
IC50, cell survival, MiaPaCa-2 [15]: 0.0117 nM
IC50, cell survival, Panc-1 [15]: 0.232 nM
IC50, cell survival, T24 [15]: 0.0222 nM

B3: 4E6-Hu tetra (4E6 hu tetramer) (other)
chain: EVQLLESGGGLVQPGGSLRLSCAASGRTFGSIRVGWFRQAPGKGREFVSAINRNDGTTYYADSVKGRFTISRDNSKNTVYLQMNSLRPEDTAVYYCAAGLQYNRAADRVPVGAVYWGQGTLVTVSSGGGGSGGGGSGGGGSGGGGSGGGGSGGGGSGGGGSEVQLLESGGGLVQPGGSLRLSCAASGRTFGSIRVGWFRQAPGKGREFVSAINRNDGTTYYADSVKGRFTISRDNSKNTVYLQMNSLRPEDTAVYYCAAGLQYNRAADRVPVGAVYWGQGTLVTVSSGGGGSGGGGSGGGGSGGGGSGGGGSGGGGSGGGGSEVQLLESGGGLVQPGGSLRLSCAASGRTFGSIRVGWFRQAPGKGREFVSAINRNDGTTYYADSVKGRFTISRDNSKNTVYLQMNSLRPEDTAVYYCAAGLQYNRAADRVPVGAVYWGQGTLVTVSSGGGGSGGGGSGGGGSGGGGSGGGGSGGGGSGGGGSEVQLLESGGGLVQPGGSLRLSCAASGRTFGSIRVGWFRQAPGKGREFVSAINRNDGTTYYADSVKGRFTISRDNSKNTVYLQMNSLRPEDTAVYYCAAGLQYNRAADRVPVGAVYWGQGTLVTVSS
IC50, cell survival, Colo205 [16]: 0.012 nM
IC50, cell survival, Jurkat [16]: 0.0026 nM
IC50, cell survival, A549 [15]: > 10 nM
IC50, cell survival, BxPC-3 [15]: 0.0292 nM
IC50, cell survival, Colo205 [15]: 0.0034 nM
IC50, cell survival, H226 [15]: 0.129 nM
IC50, cell survival, H2122 [15]: 0.0051 nM
IC50, cell survival, Jurkat (72) [15]: 0.0172 nM
IC50, cell survival, M30 [15]: > 10 nM
IC50, cell survival, MiaPaCa-2 [15]: 0.0185 nM
IC50, cell survival, Panc-1 [15]: 0.229 nM
IC50, cell survival, T24 [15]: 0.0447 nM
